One substance from patent US6838262 can be followed below.

In the assay the target is human RANK, full length, expressed in or on cells (human) (UniProt Q9Y6Q6). Put plainly: cell-based or functional assay.
Sequence of UniProt Q9Y6Q6 (Q9Y6Q6 26-616): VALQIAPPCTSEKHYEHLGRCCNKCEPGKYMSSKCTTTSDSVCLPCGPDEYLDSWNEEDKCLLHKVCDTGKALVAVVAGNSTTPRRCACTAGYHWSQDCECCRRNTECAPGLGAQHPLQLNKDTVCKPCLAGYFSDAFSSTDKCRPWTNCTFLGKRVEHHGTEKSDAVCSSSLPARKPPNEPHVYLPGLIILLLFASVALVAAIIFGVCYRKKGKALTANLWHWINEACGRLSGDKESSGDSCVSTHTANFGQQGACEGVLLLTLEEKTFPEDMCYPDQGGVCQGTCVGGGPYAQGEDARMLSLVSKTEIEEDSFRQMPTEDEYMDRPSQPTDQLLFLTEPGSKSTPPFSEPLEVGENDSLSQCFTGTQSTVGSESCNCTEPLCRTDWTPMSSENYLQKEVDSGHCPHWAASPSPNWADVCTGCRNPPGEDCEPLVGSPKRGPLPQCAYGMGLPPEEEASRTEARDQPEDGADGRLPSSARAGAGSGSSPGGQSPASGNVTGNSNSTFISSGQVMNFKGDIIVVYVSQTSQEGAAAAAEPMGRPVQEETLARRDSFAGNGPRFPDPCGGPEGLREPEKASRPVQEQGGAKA

Take “RANKL as added to human dendritic cell cultures (Example 13; species and construct not stated) (ligand)”: the allo-stimulatory capacity of CD1a+ DC in a mixed lymphocyte reaction (MLR) is greater than 10 fold.
